In the supplement of paper PMC12338614:

B1: library; numbered along this chain (parent)
chain: MEVVDPQQLGMFTEGELMSVGMDTFIHRIDSTEVIYQPRRKRAKLIGKYLMGDLLGEGSYGKVKEVLDSETLCRRAVKILKKKKLRRIPNGEANVKKEIQLLRRLRHKNVIQLVDVLYNEEKQKMYMVMEYCVCGMQEMLDSVPEKRFPVCQAHGYFCQLIDGLEYLHSQGIVHKDIKPGNLLLTTGGTLKISDLGVAEALHPFAADDTCRTSQGSPAFQPPEIANGLDTFSGFKVDIWSAGVTLYNITTGLYPFEGDNIYKLFENIGKGSYAIPGDCGPPLSDLLKGMLEYEPAKRFSIRQIRQHSWFRKKHPPAEAPVPIPPSPDTKDRWRSMTVVPYLEDLHGADEDEDLFDIEDDIIYTQDFTVPGQVPEEEASHNGQRRGLPKAVCMNGTEAAQLSTKSRAEGRAPNPARKACSASSKIRRLSACKQQ

Variants of: B1
Experiment: STK11 functional score (HeLa growth suppression), rescaled enrichment; synonymous median = 1, nonsense median = 0 (normalised score)
Settings: with HeLa; variant type: missense
Method in brief: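 Functional scores are post/pre-selection log ratios corrected to wild type, rescaled to synonymous and nonsense medians, merged over codons and replicate transfections, and given bootstrapped error. They come from POPCode libraries of codon-optimised STK11 integrated by Bxb1 at an AAVS1 landing pad in HeLa, three regions each transfected three times, with BFP-negative, mCherry-positive integrants sorted by FACS and tiled gDNA amplicons sequenced on NextSeq.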

STK11 functional score of substitutions, site by site:
H379: Y 1.39 | V 1.46 | D 1.18 | K 1.37 | I 1.53 | T 1.31 | R 1.36 | A 1.38 | M 1.52 | P 1.46 | L 1.09 | F 1.1 | G 1.11 | W 0.788 | S 1.55 | E 0.586
Q382: V 1.12 | S 1.5 | L 1.34 | Y 1.28 | E 1.2 | F 1.14 | T 1.29 | R 1.48 | H 1.15 | A 1.38 | I 1.31 | K 1.11 | G 1.4 | D 1.47 | M 1.52 | P 1.35 | W 1.06 | C 1.15
N380: Y 1.14 | G 1.57 | L 0.908 | R 1.56 | H 1.48 | P 1.59 | C 1.57 | V 1.12 | K 1.42 | E 1.48 | T 1.31 | A 1.51 | F 1.06 | S 0.982 | W 1.04 | M 1.55 | I 1.04 | Q 1.47
R383: C 1.22 | F 1.2 | D 1.49 | E 1.57 | A 1.44
E375: T 0.94 | F 1.29 | H 1.24 | I 1.59 | P 1.53 | G 1.49 | V 1.27 | W 1.54 | S 1.39 | C 1.31 | Y 1.52 | Q 1.12 | A 1.13 | D 1.58 | K 1.56 | N 1.47 | L 1.04 | R 1.46
E376: C 1.46 | I 1.54 | P 1.31 | F 1.35 | Q 0.896 | W 0.781 | S 1.57 | G 1.18 | K 1.41 | V 1.07 | R 1.39 | M 0.943 | H 0.914 | L 1.42 | T 1.55 | Y 1.56 | D 0.267 | A 1.4
G381: Y 1.37 | W 1.05 | L 1.24 | R 1.48 | C 1.1 | A 1.09 | I 1.57 | F 1.13 | P 1.61 | D 1.57 | M 1.57 | H 1.6 | K 1.59 | S 1.36 | V 0.684 | T 1.6
S378: L 0.82 | C 1.42 | Q 0.786 | P 1.38 | N 1.56 | G 0.914 | D 1.5 | K 1.6 | V 1.04 | Y 1.35 | A 1.44 | M 1.11 | W 0.76 | T 1.4 | F 1.41 | R 1.16 | I 1.26
A377: E -0.00596 | Y 1.49 | Q 1.59 | H 0.0602 | I 1.55 | M 1.51 | S 1.24 | P 1.4 | L 1.04 | W 0.843 | T 1.59 | R 1.6 | G 1.01 | K 1.63 | V 1.31
E374: D 0.971 | W 1.55 | F 1.33 | G 1.12 | H 1.06 | R 1.61 | S 1.46 | K 1.47 | C 1.51 | I 1.46 | L 1.2 | P 1.42 | Y 1.29 | Q 0.822 | T 1.52 | A 0.915 | V 0.836
P373: S 1.44 | M 1.56 | R 0.782 | N 1.59 | W 1.6 | Q 1.55 | T 1.11 | L 1.13 | V 0.868
